Assay results published in article PMC12581312, “Lung endothelial PEAR1 induces tumor cell dormancy” (Molecular Cancer, 2025).

Target: T1, Human recombinant LOXL2 (lysyl oxidase like 2) (human, UniProt Q9Y4K0 26-774)
T1 construct: lysyl oxidase like 2 (LOXL2), human, recombinant; source: bought: R&D Systems (catalog #2639-AO-010)
T1 sequence (looked up): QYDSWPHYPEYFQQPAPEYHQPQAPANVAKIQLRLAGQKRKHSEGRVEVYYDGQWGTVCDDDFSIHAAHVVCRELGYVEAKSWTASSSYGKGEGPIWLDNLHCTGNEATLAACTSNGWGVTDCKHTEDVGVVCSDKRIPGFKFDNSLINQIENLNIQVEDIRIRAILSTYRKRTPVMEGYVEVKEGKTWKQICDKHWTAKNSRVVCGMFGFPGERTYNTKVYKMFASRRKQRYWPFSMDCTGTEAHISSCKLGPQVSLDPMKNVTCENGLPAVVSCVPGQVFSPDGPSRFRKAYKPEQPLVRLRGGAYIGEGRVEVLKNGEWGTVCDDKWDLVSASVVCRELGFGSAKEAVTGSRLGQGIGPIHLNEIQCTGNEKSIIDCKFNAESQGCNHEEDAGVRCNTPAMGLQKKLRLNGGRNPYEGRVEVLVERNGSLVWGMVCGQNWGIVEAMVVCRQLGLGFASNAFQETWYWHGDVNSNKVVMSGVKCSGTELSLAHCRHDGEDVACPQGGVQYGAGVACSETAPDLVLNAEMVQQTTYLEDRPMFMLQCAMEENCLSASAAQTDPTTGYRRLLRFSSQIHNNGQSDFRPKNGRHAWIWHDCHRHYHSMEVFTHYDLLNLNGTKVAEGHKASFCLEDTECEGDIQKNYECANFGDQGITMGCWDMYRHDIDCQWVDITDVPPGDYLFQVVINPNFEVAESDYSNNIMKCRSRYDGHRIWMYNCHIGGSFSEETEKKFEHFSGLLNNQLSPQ
Experiment: pull-down; recombinant human PEAR1 (100 nM) immobilised on Ni-NTA magnetic beads, incubated with 100 nM recombinant human CTSD, SEMA6D or LOXL2 in 50 mM NaH2PO4, 300 mM NaCl, 20 mM imidazole, pH 8.0, 1 h at room temperature; control Ni-NTA beads; immunoblotting
Conditions: both partners purified

binding result: binds
B1: Human recombinant PEAR1 extracellular part (platelet and endothelial aggregation receptor 1), His-tagged (domain or fragment, UniProt Q5VY43 21-755, looked up)
chain: LNPSDPNTCSFWESFTTTTKESHSRPFSLLPSEPCERPWEGPHTCPQPTVVYRTVYRQVVKTDHRQRLQCCHGFYESRGFCVPLCAQECVHGRCVAPNQCQCVPGWRGDDCSSECAPGMWGPQCDKPCSCGNNSSCDPKSGVCSCPSGLQPPNCLQPCTPGYYGPACQFRCQCHGAPCDPQTGACFCPAERTGPSCDVSCSQGTSGFFCPSTHSCQNGGVFQTPQGSCSCPPGWMGTICSLPCPEGFHGPNCSQECRCHNGGLCDRFTGQCRCAPGYTGDRCREECPVGRFGQDCAETCDCAPDARCFPANGACLCEHGFTGDRCTDRLCPDGFYGLSCQAPCTCDREHSLSCHPMNGECSCLPGWAGLHCNESCPQDTHGPGCQEHCLCLHGGVCQATSGLCQCAPGYTGPHCASLCPPDTYGVNCSARCSCENAIACSPIDGECVCKEGWQRGNCSVPCPPGTWGFSCNASCQCAHEAVCSPQTGACTCTPGWHGAHCQLPCPKGQFGEGCASRCDCDHSDGCDPVHGRCQCQAGWMGARCHLSCPEGLWGVNCSNTCTCKNGGTCLPENGNCVCAPGFRGPSCQRSCQPGRYGKRCVPCKCANHSFCHPSNGTCYCLAGWTGPDCSQPCPPGHWGENCAQTCQCHHGGTCHPQDGSCICPLGWTGHHCLEGCPLGTFGANCSQPCQCGPGEKCHPETGACVCPPGHSGAPCRIGIQEPFTVMPTTPVAYNSL
notes: platelet and endothelial aggregation receptor 1 (PEAR1), human, extracellular part; Held on Ni-NTA magnetic agarose beads by its His tag in the pull-downs; also called rhPEAR1; PEAR1 agarose; source: bought: R&D Systems (catalog #4527-PR-050)
